The series deals with the molecule itself. Kind of series: SEC + other: dynamic light scattering + other: transmission electron microscopy.

B1: bacteriophage Qβ coat protein, assembled as the recombinant virus-like particle (natural protein)
chain: MAKLETVTLGNIGKDGKQTLVLNPRGVNPTNGVASLSQAGAVPALEKRVTVSVSQPSRNRKNYKVQVKIQNPTACTANGSCDPSVTRQAYADVTFSFTQYSTDEERAFVRTELAALLASPLLIDAIDQLNPAY
Turning to B1, the binding result is given as “binds”.

Source of the values: PMC3246388 (Biomacromolecules, 2011).
